According to US7943146B2, “Immunizing compositions comprising HIV-1 proviral constructs with an inactive p6 gag TSG101 UEV binding domain capable of producing budding-defective viral particles that remain tethered to the cell surface” (priority 2001, dated 2011):
Residues, ends and D or L forms follow the SMILES beside them. No end group written: not given here.

How the values were obtained:
HIV = assay: microbe, parasite or virus in culture; type: cell-based, HIV-1; conditions: human PBMCs
Description: Fresh human blood was obtained commercially from Interstate Blood Bank, Inc. (Memphis, Tenn.). The lymphotropic clinical isolate HIV-1ROJO was obtained from a pediatric patient attending the AIDS Clinic at the University of Alabama at Birmingham. The laboratory-adapted HIV-1IIIB strain was propagated and tittered in fresh human PBMCs; pre-titered aliquots of HIV-1ROJO and Hiv-1IIIB were removed from the freezer (−80° C.) and thawed rapidly to room temperature in a biological safety cabinet immediately before use. Phytohemagglutinin (PHA-P) was obtained from Sigma (St. Louis, Mo.) and recombinant IL-2 was obtained from Amgen (San Francisco, Calif.).
Fresh human PBMCs were isolated from screened donors, seronegative for HIV and HBV. Leukophoresed blood was diluted 1:1 with Dulbecco's phosphate buffered saline (PBS), layered over 14 mL of Ficoll-Hypaque density gradient in a 50 mL centrifuge tube and then centrifuged for 30 minutes at 600×g. Banded PBMCs were aspirated from the resulting interface and subsequently washed 2× with PBS by low speed centrifugation. After the final wash, cells were enumerated by trypan blue exclusion and re-suspended at 1×10^7 cells/mL in RPMI 1640 supplemented with 15% Fetal Bovine Serum (FBS), 2 mM L-glutamine, 4 μg/mL PHA-P. The cells were allowed to incubate for 48-72 hours at 37° C. After incubation, PBMCs were centrifuged and reset in RPMI 1640 with 15% FBS, 2 mM L-glutamine, 100 U/ml penicillin, 100 μg/mL streptomycin, 10 μg/mL gentamycin, and 20 U/mL recombinant human IL-2. PBMCs were maintained in this medium at a concentration of 1-2×10^6 cells/mL with biweekly medium changes until used in the assay protocol.
For the standard PBMC assay, PHA-P stimulated cells from at least two normal donors were pooled, diluted in fresh medium to a final concentration of 1×10^6 cells/mL, and plated in the interior wells of 96 well round bottom microplate at 50 μL/well (5×10^4 cells/well). Test drug dilutions were prepared at a 2× concentration in microtiter tubes and […] of each concentration was placed in appropriate wells in a standard format. […] Wells with cells and virus alone were used for virus control. Separate plates were prepared identically without virus for drug cytotoxicity studies using an XTT assay system. The PBMC cultures were maintained for seven days following infection, at which time cell-free supernate samples were collected and assayed for reverse transcriptase activity as described below.
A microtiter based reverse transcriptase (RT) reaction was utilized. See Buckheit et al., AIDS Research and Human Retroviruses 7:295-302 (1991). Tritiated thymidine triphosphate (NEN) (TTP) was resuspended in distilled H2O at 5 Ci/ml. Poly rA and oligo dT were prepared as a stock solution which was kept at −20° C. The RT reaction buffer was prepared fresh on a daily basis and consists of 125 μl 1M EGTA, 125 μl dH2O, 110 μl 10% SDS, 50 μl 1M Tris (pH 7.4), 50 μl 1M DTT, and 40 μl 1M MgCL2. These three solutions were mixed together in a ratio of 2 parts TTP, 1 part poly rA:oligo dT, and 1 part reaction buffer. Ten microliters of this reactions mixture was placed at a round bottom microtiter plate and 15 μl of virus containing supernatant was added and mixed. […] Opti-Fluor-O (Packard) was added to each sample and incorporated radioactivity was quantified utilizing a Wallac 1450 MicroBeta Plus liquid scintillation counter.

Tsg101 [1] = target: T1, Tsg101 (Homo sapiens, UniProt Q99816); assay: Two-hybrid liquid culture β-galactosidase assay; type: cell-based; design: expressed in transfected cells; conditions: full length Tsg101, liquid culture; for β-galactosidase activity (in words): p6 point mutants
T1 sequence (Q99816 1-390): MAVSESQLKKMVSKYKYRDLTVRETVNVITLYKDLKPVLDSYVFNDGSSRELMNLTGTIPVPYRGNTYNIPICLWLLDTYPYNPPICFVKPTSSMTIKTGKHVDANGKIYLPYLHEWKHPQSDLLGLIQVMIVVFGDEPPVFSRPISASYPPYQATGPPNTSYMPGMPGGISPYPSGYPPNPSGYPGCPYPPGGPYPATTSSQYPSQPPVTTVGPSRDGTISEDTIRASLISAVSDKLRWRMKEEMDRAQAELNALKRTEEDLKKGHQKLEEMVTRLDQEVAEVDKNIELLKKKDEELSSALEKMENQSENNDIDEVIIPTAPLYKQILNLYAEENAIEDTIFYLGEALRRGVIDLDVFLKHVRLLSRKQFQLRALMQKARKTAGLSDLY
Description: The interactions between TSG101 and wild-type p6gag (WT) or the p6gag PTAP (SEQ ID NO:1) mutants were further quantitated by performing liquid culture β-galactosidase assays. Cultures were grown overnight in synthetic media (−Leu, −Trp, +glucose) in 96 well plates, normalized for optical density, and lysed by addition of 6× lysis/substrate solution in 6× Z-buffer (60 mM KCl, 6 mM MgSO4, 360 mM Na2HPO4, 240 mM NaH2PO4, 6 mg/ml CPRG, 0.12 U/ml lyticase, 0.075% NP-40). Cultures were incubated for 2 hr at 37° C., clarified by centrifugation, and the optical absorbance of each supernatant was measured (575 nm). Full length Tsg101 bound wild-type p6 in the two-hybrid liquid culture assay, resulting in high levels of β-galactosidase activity (>300-fold over background). […] Each of these point mutations also arrests HIV-1 budding at a late stage (Huang et al. 1995).

Tsg101 [2] = target: T1, Tsg101; assay: Yeast two-hybrid filter lift assay for β-Gal activity, Tsg101 with p6gag constructs; type: cell-based; design: expressed in transfected cells; host or cells: Saccharomyces cerevisiae strain Y189; key to Interactions Between Tsg101 and p6gag (β-Gal activity): +: Positive β-Gal activity indicates that the p6gag wild type or mutant protein interacts with Tsg101; conditions: for Interactions Between Tsg101 and p6gag (β-Gal activity): yeast strain Y189, activation domain-Tsg101 plus binding domain-p6gag construct, X-Gal filter lift
Excerpt: Yeast two-hybrid assays were utilized to determine the effect of amino acid substitution mutations in the PTAP (SEQ ID NO:1) motif of HIV p6gag on the interaction between Tsg101 and p6gag. To prepare a yeast two-hybrid activation domain-Tsg101 construct, a DNA fragment encompassing the full-length coding sequence for Tsg101 according to GenBank Accession No. U82130 was obtained by PCR from a human fetal brain cDNA library and cloned into the EcoRI/Pst1 sites of the activation domain parent plasmid GADpN2 (LEU2, CEN4, ARS1, ADH1p-SV40NLS-GAL4 (768-881)-MCS (multiple cloning site)-PGKlt, AmpR, ColE1_ori).
To prepare the yeast two-hybrid DNA binding domain-HIV1 p6gag construct, a DNA fragment corresponding to the HIV1 p6 peptide derived from the HIV1.NL43 strain GAG protein was obtained by PCR from the NL43 containing plasmid R9Δapa and was cloned into the EcoRI/Sal1 sites of the binding domain parent plasmid pGBT.Q. The sequence of the amplified insert is shown in SEQ ID NO:34.
The following amino acid substitution mutations were introduced by PCR into the HIV1 p6gag sequence in the yeast two-hybrid binding domain-HIV1 p6gag construct described above. The mutations were verified by DNA sequence analysis.
To test the effect of the mutations, yeast cells of the strain Y189 purchased from Clontech (ura3-52 his3*200 ade2-101 trp1-901 leu2-3,112 met gal4 gal80 URA3::GAL1p-lacZ) were co-transformed with the activation domain-Tsg101 construct and one of the binding domain-mutant p6gag constructs or the binding domain-wild type p6gag construct. Filter lift assays for β-Gal activity were conducted by lifting the transformed yeast colonies with filters, lysing the yeast cells by freezing and thawing, and contacting the lysed cells with X-Gal. […] All binding domain constructs were also tested for self-activation of β-Gal activity.

Row | Molecule | Comments (anti-HIV activity) (HIV) | β-galactosidase activity (in words) (Tsg101 [1]) | further results
1 | C[C@H](NC(=O)[C@@H](NC(=O)[C@@H]1CCCN1C(=O)[C@H](CCC(=O)O)NC(=O)[C@@H]1CCCN1C(=O)[C@H](CCCNC(=N)N)NC(=O)[C@H](CCCNC(=N)N)NC(=O)[C@H](CCCNC(=N)N)NC(=O)[C@H](CCCNC(=N)N)NC(=O)[C@H](CCCNC(=N)N)NC(=O)[C@H](CCCNC(=N)N)NC(=O)[C@H](CCCNC(=N)N)NC(=O)[C@H](CCCNC(=N)N)NC(=O)[C@@H](N)CCCNC(=N)N)[C@@H](C)O)C(=O)N1CCC[C@H]1C(=O)N[C@@H](CCC(=O)O)C(=O)N[C@@H](CCC(=O)O)C(=O)O [MPI-PEP1, NH2—(R)9-PEPTAPEE-COOH] (H-RRRRRRRRRPEPTAPEE-OH) | Active | – | –
2 | CC(C)C[C@H](NC(=O)[C@H](C)NC(=O)[C@@H](NC(=O)[C@@H]1CCCN1C(=O)[C@H](CCC(=O)O)NC(=O)[C@@H]1CCCN1C(=O)[C@H](CCCNC(=N)N)NC(=O)[C@H](CCCNC(=N)N)NC(=O)[C@H](CCCNC(=N)N)NC(=O)[C@H](CCCNC(=N)N)NC(=O)[C@H](CCCNC(=N)N)NC(=O)[C@H](CCCNC(=N)N)NC(=O)[C@H](CCCNC(=N)N)NC(=O)[C@H](CCCNC(=N)N)NC(=O)[C@@H](N)CCCNC(=N)N)[C@@H](C)O)C(=O)N[C@@H](CCC(=O)O)C(=O)N[C@@H](CCC(=O)O)C(=O)O [MPI-PEP2, NH2—(R)9-PEPTALEE-COOH] (H-RRRRRRRRRPEPTALEE-OH) | Inactive | – | –
3 | C[C@H](NC(=O)[C@@H](NC(=O)[C@@H]1CCCN1C(=O)[C@H](CCC(=O)O)NC(=O)[C@@H]1CCCN1C(=O)[C@@H](N)CCCNC(=N)N)[C@@H](C)O)C(=O)N1CCC[C@H]1C(N)=O [MPI-PEP3, NH2-RPEPTAP-CO—NH2] (H-RPEPTAP-NH2) | Inactive | – | –
4 | p6(A9R): HIV1 p6gag binding domain construct with A9R substitution in the PTAP motif (LQSRPEPTRPPEESFRFGEETTTPSQKQEPIDKELYPLASLRSLFGSDPSSQ; not fully specified) | – | reduced β-galactosidase activity to background levels | –
5 | p6(E6G): HIV1 p6gag binding domain construct with E6G substitution outside the PTAP motif (LQSRPGPTAPPEESFRFGEETTTPSQKQEPIDKELYPLASLRSLFGSDPSSQ; not fully specified) | – | – | Tsg101-p6gag interaction (in words) (Tsg101 [2]; summary of Table II): did not result in the elimination of the Tsg101-p6gag interaction; Interactions Between Tsg101 and p6gag (β-Gal activity) (Tsg101 [2]): +
6 | p6(P7L): HIV1 p6gag binding domain construct with P7L substitution in the PTAP motif (LQSRPELTAPPEESFRFGEETTTPSQKQEPIDKELYPLASLRSLFGSDPSSQ; not fully specified) | – | reduced β-galactosidase activity to background levels | –
7 | p6(P10L): HIV1 p6gag binding domain construct with P10L substitution in the PTAP motif (LQSRPEPTALPEESFRFGEETTTPSQKQEPIDKELYPLASLRSLFGSDPSSQ; not fully specified) | – | reduced β-galactosidase activity to background levels | –
8 | p6(wt): wild type HIV1 p6gag (NL43 strain) as yeast two-hybrid DNA binding domain construct | – | – | β-galactosidase activity (Tsg101 [1]; absorbance 575 nm): > 300 fold over background; Interactions Between Tsg101 and p6gag (β-Gal activity) (Tsg101 [2]): +
